Measurements published in patent publication US10064928B2, “Peptides and combination of peptides for use in immunotherapy against CLL and other cancers” (IMMATICS BIOTECHNOLOGIES GMBH, priority 2015, dated 2018).
Blank lines part the entries; values can stand above or below the substance they belong to.

Target: HLA-A*02:01 (Homo sapiens, UniProt P04439, D140Y/D185E/D98H/E176V/E277Q/G131W/G231S/I119V/I121R/I166T/I218V/L300P/L318F/N151K/N90K/P208A/P217A/Q86G/Q94H/R138H/R169H/T345S)
Experiment: MHC binding assay (UV-ligand exchange, beta2m ELISA)
Conditions: binding of HLA-class I restricted peptides to HLA-A*02:01, β2m ELISA
Excerpt: Candidate peptides for T cell based therapies according to the present invention were further tested for their MHC binding capacity (affinity). The individual peptide-MHC complexes were produced by UV-ligand exchange, where a UV-sensitive peptide is cleaved upon UV-irradiation, and exchanged with the peptide of interest as analyzed. Only peptide candidates that can effectively bind and stabilize the peptide-receptive MHC molecules prevent dissociation of the MHC complexes. To determine the yield of the exchange reaction, an ELISA was performed based on the detection of the light chain (β2m) of stabilized MHC complexes. The assay was performed as generally described in Rodenko et al. (Rodenko et al., 2006).
96 well MAXISorp plates (NUNC) were coated over night with 2 ug/ml streptavidin in PBS at room temperature, washed 4× and blocked for 1 h at 37° C. in 2% BSA containing blocking buffer. Refolded HLA-A*02:01/MLA-001 monomers served as standards, covering the range of 15-500 ng/ml. Peptide-MHC monomers of the UV-exchange reaction were diluted 100 fold in blocking buffer. Samples were incubated for 1 h at 37° C., washed four times, incubated with 2 ug/ml HRP conjugated anti-β2m for 1 h at 37° C., washed again and detected with TMB solution that is stopped with […]. Absorption was measured at 450 nm. Candidate peptides that show a high exchange yield (preferably higher than 50%, most preferred higher than 75%) are generally preferred for a generation and production of antibodies or fragments thereof, and/or T cell receptors or fragments thereof, as they show sufficient avidity to the MHC molecules and prevent dissociation of the MHC complexes.

Peptide Exchange (MHC class I binding score, peptide exchange yield): “+++” (≥50 = +++)
Substance: 378 (YILGKFFAL; listed as Homo sapiens) [compound 378]

Peptide Exchange (MHC class I binding score, peptide exchange yield): “+++” (≥50 = +++)
Substance: 377 (VVDGTCVAV; listed as Homo sapiens) [compound 377]

Peptide Exchange (MHC class I binding score, peptide exchange yield): “++” (≥20% = ++)
Substance: 180 (LLKDGPEIGL; listed as Homo sapiens) [compound 180]

Peptide Exchange (MHC class I binding score, peptide exchange yield): “++++” (≥75% = ++++)
Substance: 245 (KIMDYSLLLGV; listed as Homo sapiens) [compound 245]

Peptide Exchange (MHC class I binding score, peptide exchange yield): “++++” (≥75% = ++++)
Substance: 229 (FLLNLQNCHL; listed as Homo sapiens) [compound 229]

Peptide Exchange (MHC class I binding score, peptide exchange yield): “++++” (≥75% = ++++)
Substance: 187 (VMDTHLVNI; listed as Homo sapiens) [compound 187]

Peptide Exchange (MHC class I binding score, peptide exchange yield): “+++” (≥50 = +++)
Substance: 355 (FIWPMLIHI; listed as Homo sapiens) [compound 355]

Peptide Exchange (MHC class I binding score, peptide exchange yield): “+++” (≥50 = +++)
Substance: 313 (LMADLEGLHL; listed as Homo sapiens) [compound 313]

Peptide Exchange (MHC class I binding score, peptide exchange yield): “+++” (≥50 = +++)
Substance: 222 (ALWELSLKI; listed as Homo sapiens) [compound 222]

Peptide Exchange (MHC class I binding score, peptide exchange yield): “+++” (≥50 = +++)
Substance: 255 (YLFEEAISM; listed as Homo sapiens) [compound 255]

Peptide Exchange (MHC class I binding score, peptide exchange yield): “+++” (≥50 = +++)
Substance: 254 (QLIPKLIFL; listed as Homo sapiens) [compound 254]

Peptide Exchange (MHC class I binding score, peptide exchange yield): “+++” (≥50 = +++)
Substance: 198 (YLTFLPAEV; listed as Homo sapiens) [compound 198]

Peptide Exchange (MHC class I binding score, peptide exchange yield): “++++” (≥75% = ++++)
Substance: 336 (YMAVTTQEV; listed as Homo sapiens) [compound 336]

Peptide Exchange (MHC class I binding score, peptide exchange yield): “+++” (≥50 = +++)
Substance: 331 (VLWELAHLPTL; listed as Homo sapiens) [compound 331]

Peptide Exchange (MHC class I binding score, peptide exchange yield): “+++” (≥50 = +++)
Substance: 370 (SIFASPESV; listed as Homo sapiens) [compound 370]

Peptide Exchange (MHC class I binding score, peptide exchange yield): “+++” (≥50 = +++)
Substance: 235 (GLDDLLLFL; listed as Homo sapiens) [compound 235]

Peptide Exchange (MHC class I binding score, peptide exchange yield): “+++” (≥50 = +++)
Substance: 227 (FLAEASVMTQL; listed as Homo sapiens) [compound 227]

Peptide Exchange (MHC class I binding score, peptide exchange yield): “+++” (≥50 = +++)
Substance: 315 (LVYEAPETV; listed as Homo sapiens) [compound 315]

Peptide Exchange (MHC class I binding score, peptide exchange yield): “+++” (≥50 = +++)
Substance: 318 (NLQVTQPTV; listed as Homo sapiens) [compound 318]

Peptide Exchange (MHC class I binding score, peptide exchange yield): “++++” (≥75% = ++++)
Substance: 287 (FLWEEKFNSL; listed as Homo sapiens) [compound 287]

Peptide Exchange (MHC class I binding score, peptide exchange yield): “+++” (≥50 = +++)
Substance: 236 (GLLESGRHYL; listed as Homo sapiens) [compound 236]

Peptide Exchange (MHC class I binding score, peptide exchange yield): “++” (≥20% = ++)
Substance: 373 (TLLADQGEIRV; listed as Homo sapiens) [compound 373]

Peptide Exchange (MHC class I binding score, peptide exchange yield): “+++” (≥50 = +++)
Substance: 216 (WLAGDVPAA; listed as Homo sapiens) [compound 216]

Peptide Exchange (MHC class I binding score, peptide exchange yield): “+++” (≥50 = +++)
Substance: 217 (ALDEPPYLTV; listed as Homo sapiens) [compound 217]

Peptide Exchange (MHC class I binding score, peptide exchange yield): “+++” (≥50 = +++)
Substance: 365 (LISPLLLPV; listed as Homo sapiens) [compound 365]

Peptide Exchange (MHC class I binding score, peptide exchange yield): “+++” (≥50 = +++)
Substance: 371 (SLADDSVLERL; listed as Homo sapiens) [compound 371]

Further lines, the substance ahead of its results:

Substance: 30 (ELLEGSEIYL; listed as Homo sapiens) [compound 30]
Peptide Exchange (MHC class I binding score, peptide exchange yield): “+++” (≥50 = +++)

Substance: 104 (KLILLDTPLFL; listed as Homo sapiens) [compound 104]
Peptide Exchange (MHC class I binding score, peptide exchange yield): “+++” (≥50 = +++)

Substance: 151 (SLFDSAYGA; listed as Homo sapiens) [compound 151]
Peptide Exchange (MHC class I binding score, peptide exchange yield): “+++” (≥50 = +++)

Substance: 90 (VIADLGLIRV; listed as Homo sapiens) [compound 90]
Peptide Exchange (MHC class I binding score, peptide exchange yield): “+++” (≥50 = +++)

Substance: 161 (SMDDGMINV; listed as Homo sapiens) [compound 161]
Peptide Exchange (MHC class I binding score, peptide exchange yield): “+++” (≥50 = +++)

Substance: 92 (ILEPLNPLL; listed as Homo sapiens) [compound 92]
Peptide Exchange (MHC class I binding score, peptide exchange yield): “+++” (≥50 = +++)

Substance: 149 (SLDNGGYYI; listed as Homo sapiens) [compound 149]
Peptide Exchange (MHC class I binding score, peptide exchange yield): “+++” (≥50 = +++)

Substance: 24 (AMAGDVVYA; listed as Homo sapiens) [compound 24]
Peptide Exchange (MHC class I binding score, peptide exchange yield): “+++” (≥50 = +++)

Substance: 31 (ELMHGVAGV; listed as Homo sapiens) [compound 31]
Peptide Exchange (MHC class I binding score, peptide exchange yield): “+++” (≥50 = +++)

Substance: 11 (ALFTFSPLTV; listed as Homo sapiens) [compound 11]
Peptide Exchange (MHC class I binding score, peptide exchange yield): “+++” (≥50 = +++)

Substance: 156 (SLNIGDVQL; listed as Homo sapiens) [compound 156]
Peptide Exchange (MHC class I binding score, peptide exchange yield): “+++” (≥50 = +++)

Substance: 71 (GLKHDIARV; listed as Homo sapiens) [compound 71]
Peptide Exchange (MHC class I binding score, peptide exchange yield): “+++” (≥50 = +++)

Substance: 63 (SLAHVAGCEL; listed as Homo sapiens) [compound 63]
Peptide Exchange (MHC class I binding score, peptide exchange yield): “+++” (≥50 = +++)

Substance: 43 (FLLGPEALSFA; listed as Homo sapiens) [compound 43]
Peptide Exchange (MHC class I binding score, peptide exchange yield): “++++” (≥75% = ++++)

Substance: 146 (SIIEGPIIKL; listed as Homo sapiens) [compound 146]
Peptide Exchange (MHC class I binding score, peptide exchange yield): “+++” (≥50 = +++)

Substance: 178 (VLFFNVQEV; listed as Homo sapiens) [compound 178]
Peptide Exchange (MHC class I binding score, peptide exchange yield): “+++” (≥50 = +++)

Substance: 159 (SLQEEKLIYV; listed as Homo sapiens) [compound 159]
Peptide Exchange (MHC class I binding score, peptide exchange yield): “+++” (≥50 = +++)

Substance: 115 (LLFDKLYLL; listed as Homo sapiens) [compound 115]
Peptide Exchange (MHC class I binding score, peptide exchange yield): “+++” (≥50 = +++)

Substance: 122 (LLIPVVPGV; listed as Homo sapiens) [compound 122]
Peptide Exchange (MHC class I binding score, peptide exchange yield): “+++” (≥50 = +++)

Substance: 10 (FVYGESVEL; listed as Homo sapiens) [compound 10]
Peptide Exchange (MHC class I binding score, peptide exchange yield): “+++” (≥50 = +++)
